This assay has as its target T1, hIL-3 receptor (human, UniProt P26951).
T1 sequence: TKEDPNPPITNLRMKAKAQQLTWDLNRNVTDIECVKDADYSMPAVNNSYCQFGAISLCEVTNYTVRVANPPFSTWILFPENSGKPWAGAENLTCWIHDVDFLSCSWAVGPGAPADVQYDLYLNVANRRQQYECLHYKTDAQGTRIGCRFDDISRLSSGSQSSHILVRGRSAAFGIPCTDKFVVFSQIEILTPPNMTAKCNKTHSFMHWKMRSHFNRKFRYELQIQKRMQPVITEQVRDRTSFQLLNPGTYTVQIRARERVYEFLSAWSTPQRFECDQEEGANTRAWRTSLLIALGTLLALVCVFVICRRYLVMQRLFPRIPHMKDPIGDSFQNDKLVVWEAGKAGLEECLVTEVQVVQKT
As to the kind of experiment: cell-based or functional assay.

B1: pMON13285 polypeptide (ligand)
chain: MANCSNMIDEIITHLKQPPLPLLDFNNLNDEDMSILMDNNLRRPNLEAFNRAVKSLQNASAIESILKNLLPCLPLATAAPTRHPIHIKDGDWNEFRRKLTFYLKTLENAQAQQ
For B1, the “Relative Biological Activity (AML 193 proliferation)” value (“Relative Biological Activity” for short) is 32 EC50 (1-133)hIL-3 / EC50 mutant.

B2: pMON13286 polypeptide (ligand)
chain: MANCSNMIDEIITHLKQPPLPLLDFNNLNDEDMSILMENNLRRPNLEAFNRAVKSLQNASAIESILKNLLPCLPLATAAPTRHPIHIKDGDWNEFRRKLTFYLKTLENAQAQQ
On to B2, for which the “Relative Biological Activity” value was 8 EC50 (1-133)hIL-3 / EC50 mutant.

B3: pMON13325 polypeptide (ligand)
chain: MANCSNMIDEIITHLKQPPLPLLDFNNLNDEDMSILMENNLRRPNLEAFNRAVKSLQNASAIESILKNLLPCLPLATAAPTRHPIHIKDGDWNEFRRKLTFYLWTLENAQAQQ
For the molecule B3, the “Relative Biological Activity” value is 8 EC50 (1-133)hIL-3 / EC50 mutant.

B4: pMON13326 polypeptide (ligand)
chain: MANCSNMIDEIITHLKQPPLPLLDFNNLNDEDMSILMDNNLRRPNLEAFNRAVKSLQNASAIESILKNLLPCLPLATAAPTRHPIHIKDGDWNEFRRKLTFYLWTLENAQAQQ
B4: the “Relative Biological Activity” value was 25 EC50 (1-133)hIL-3 / EC50 mutant.

B5: pMON13329 polypeptide (ligand)
chain: MANCSNMIDEIITHLKQPPLPLLDFNNLNDEDMSILMENNLRRPNLEAFNRAVKSLQNASAIESILKNLLPCLPLATAAPTRHPIIIRDGDWNEFRRKLTFYLWTLENAQAQQ
B5: the “Relative Biological Activity” value is 10 EC50 (1-133)hIL-3 / EC50 mutant.

B6: pMON13330 polypeptide (ligand)
chain: MANCSNMIDEIITHLKQPPLPLLDFNNLNDEDMSILMDNNLRRPNLEAFNRAVKSLQNASAIESILKNLLPCLPLATAAPTRRPIIIRDGDWNEFRRKLTFYLWTLENAQAQQ
Regarding B6, the “Relative Biological Activity” value was 19 EC50 (1-133)hIL-3 / EC50 mutant.

B7: pMON13475 polypeptide (ligand)
chain: MANCSIMIDEAIHHLKRPPAPLLDPNNLNDEDVSILMDRNLRLPNLESFVRAVKNLENASGIEAILRNLQPCLPSATAAPSRHPIIIKAGDWQEFREKLTFYLVTLEQAQEQQ
Consider B7, for which the “Relative Biological Activity” value was 7 EC50 (1-133)hIL-3 / EC50 mutant.

B8: pMON13367 polypeptide (ligand)
chain: MANCSIMIDEIIHHLKRPPAPLLDPNNLNAEDVSILMDRNLRLPNLESFVRAVKNLENASGIEAILRNLQPCLPSATAAPSRHPIIIKAGDWQEFREKLTFYLVTLEQAQEQQ
Consider B8, for which the “Relative Biological Activity” value was 36 EC50 (1-133)hIL-3 / EC50 mutant.

B9: pMON13382 polypeptide (ligand)
chain: MANCSIMIDEIIHHLKRPPAPLLDPNNLNAEDVDILMERNLRLPNLESFVRAVKNLENASGIEAILRNLQPCLPSATAAPSRHPIIIKAGDWQEFREKLQFYLWTLEQAQEQQ
In the case of B9, the “Relative Biological Activity” value is 38 EC50 (1-133)hIL-3 / EC50 mutant.

B10: pMON13379 polypeptide (ligand)
chain: MANCSIMIDEIIHHLKRPPAPLLDPNNLNAEDVSILMDRNLRLPNLESFVRAVKNLENASGIEAILRNLQPCLPSATAAPSRHPIIIKAGDWQEFREKLQFYLVTLEQAQEQQ
In the case of B10, the “Relative Biological Activity” value was 0.9 EC50 (1-133)hIL-3 / EC50 mutant.

B11: pMON13366 polypeptide (ligand)
chain: MANCSIMIDEIIHHLKRPPAPLLDPNNLNNEDVSILMDRNLRLPNLESFVRAVKNLENASGIEAILRNLQPCLPSATAAPSRHPIIIKAGDWQEFREKLTFYLVTLEQAQEQQ
In the case of B11, the “Relative Biological Activity” value was 38 EC50 (1-133)hIL-3 / EC50 mutant.

B12: pMON13369 polypeptide (ligand)
chain: MANCSIMIDEIIHHLKRPPAPLLDPNNLNDEDVSILMDRNLRLPNLESFVRAVKNLENASGIEAILRNLQPCLPSATAAPSRHPIIIKAGDWQEFREKLTFYLVTLEQAQEQQ
On to B12, for which the “Relative Biological Activity” value was 10 EC50 (1-133)hIL-3 / EC50 mutant.

B13: pMON13364 polypeptide (ligand)
chain: NCSIMIDEIIHHLKRPPNPLLDPNNLNSEDMDILMERNLRTPNLLAFVRAVKHLENASAIESILKNLLPCLPLATAAPTRHPIHIKDGDWNEFRRKLTFYLKTLENAQAQQ
Turning to B13, the “Relative Biological Activity” value is 13 EC50 (1-133)hIL-3 / EC50 mutant.

B14: pMON13375 polypeptide (ligand)
chain: MANCSIMIDEIIHHLKRPPAPLLDPNNLNAEDVDILMERNLRLPNLESFVRAVKNLENASGIEAILRNLQPCLPSATAAPSRHPIIIKAGDWQEFREKLTFYLVTLE
For B14, the “Relative Biological Activity” value is 14 EC50 (1-133)hIL-3 / EC50 mutant.

B15: pMON13376 polypeptide (ligand)
chain: MDNCSIMIDEAIHHLKRPPAPLLDPNNLNAEDVDILMERNLRLPNLESFVRAVKNLENASGIEAILRNLQPCLPSATAAPSRHPIIIKAGDWQEFREKLQFYLVTLE
On to B15, for which the “Relative Biological Activity” value was 0.4 EC50 (1-133)hIL-3 / EC50 mutant.

B16: pMON13312 polypeptide (ligand)
chain: MANCSIMIDEIIHHLKRPPNPLLDPNNLNSEDMDILMERNLRTPNLLAFVRAVKHLENASGIEAILRNLVPCLPSATAAPSRHPITIKAGDWQEFREKLTFYLVTLEQAQEQQ
B16: the “Relative Biological Activity” value is 4 EC50 (1-133)hIL-3 / EC50 mutant.

B17: pMON13381 polypeptide (ligand)
chain: MANCSIMIDEIIHHLKRPPAPLLDPNNLNAEDVDILMERNLRLPNLESFVRAVKNLENASGIEAILRNLWPCLPSATAAPSRHPIIIKAGDWQEFREKLTFYLVTLEQAQEQQ
As to B17, the “Relative Biological Activity” value is 10 EC50 (1-133)hIL-3 / EC50 mutant.

B18: pMON13374 polypeptide (ligand)
chain: MANCSIMIDEIIHHLKRPPAPLLDPNNLNSEDMSILMDRNLRLPNLESFVRAVKNLENASGIEAILRNLQPCLPSATAAPSRHPIIIKAGDWQEFREKLTFYLVTLEQAQEQQ
Take B18: the “Relative Biological Activity” value is 6 EC50 (1-133)hIL-3 / EC50 mutant.

B19: pMON13313 polypeptide (ligand)
chain: MANCSIMIDEIIHHLKRPPAPLLDPNNLNAEDVDILMERNLRLPNLESFVRAVKNLENASGIEAILRNLVPCLPSATAAPSRHPITIKAGDWQEFREKLTFYLVSLEHAQEQQ
In the case of B19, the “Relative Biological Activity” value was 8 EC50 (1-133)hIL-3 / EC50 mutant.

B20: pMON13373 polypeptide (ligand)
chain: MANCSIMIDEIIHHLKRPPAPLLDPNNLNDEDMSILMDRNLRLPNLESFVRAVKNLENASGIEAILRNLQPCLPSATAAPSRHPIIIKAGDWQEFREKLTFYLVTLEQAQEQQ
For B20, the “Relative Biological Activity” value is 12 EC50 (1-133)hIL-3 / EC50 mutant.

B21: pMON13380 polypeptide (ligand)
chain: MANCSIMIDEAIHHLKVPPAPLLDSNNLNSEDMDILMERNLRLPNLLAFVRAVKNLENASGIEAILRNLQPCLPSATAAPSRHPIIIKAGDWQEFREKLQFYLVTLEQAQEQQ
Take B21: the “Relative Biological Activity” value is 0.05 EC50 (1-133)hIL-3 / EC50 mutant.

B22: pMON13368 polypeptide (ligand)
chain: MANCSIMIDEAIHHLKVPPAPLLDSNNLNSEDMDILMERNLRLPNLLAFVRAVKNLENASGIEAILRNLQPCLPSATAAPSRHPIIIKAGDWQEFREKLTFYLVTLEQAQEQQ
For the molecule B22, the “Relative Biological Activity” value was 1.6 EC50 (1-133)hIL-3 / EC50 mutant.

B23: pMON13370 polypeptide (ligand)
chain: MANCSIMIDEIIHHLKRPPAPLLDPNNLNAEDMSILMDRNLRLPNLESFVRAVKNLENASGIEAILRNLQPCLPSATAAPSRHPIIIKAGDWQEFREKLTFYLVTLEQAQEQQ
For B23, the “Relative Biological Activity” value is 6 EC50 (1-133)hIL-3 / EC50 mutant.

(Values after patent US6051217, “Therapeutic uses of interleukin-3 (IL-3) multiple mutation polypeptides” (G. D. Searle & Co., dated 2000).)
